Measurements reported in patent US20210145976A1.
Residue numbers refer to the chain shown, from its start.

B1: SEQ ID NO 248 (designed binder)
chain: MGSLPAPKNLVVSRVTEDSARLSWTAPDAAFDSFAIPYAEPSPTGEAIVLTVPGSERSYDLTGLKPGTEYPVWIQGVKGGSPSAPLSAEFTT
B2: SEQ ID NO 250 (designed binder)
chain: MLPAPKNLVVSRVTEDSARLSWTAPDAAFDSFFIGYLEPYPPGEAIVLTVPGSERSYDLTGLKPGTEYAVEIAGVKGGLLSSPLSAISTT
B3: SEQ ID NO 251 (designed binder)
chain: B2 chain with Y40Q, A69N, E71T, A73Q, L79F, L80P, S82M, S88V
B4: SEQ ID NO 252 (designed binder)
chain: MLPAPKNLVVSRVTEDSARLSWTAPDAAFDSFDIGYTEYGGYGEAIVLTVPGSERSYDLTGLKPGTEYWVLIQGVKGGGSSVPLSAIFTT
B5: SEQ ID NO 253 (designed binder)
chain: MLPAPKNLVVSRVTEDSARLSWTAPDAAFDSFTIEYWETIGGGEAIVLTVPGSERSYDLTGLKPGTEYYVGIYGVKGGWWSRPLSAIFTT
B6: SEQ ID NO 254 (designed binder)
chain: B2 chain with G35P, L37A, Y40S, P42T, A69S, E71L, A73H, L79H, S82D
B7: SEQ ID NO 255 (designed binder)
chain: B5 chain with T33D, W37Y, T39L, G42R, Y69W, W80L
B8: SEQ ID NO 256 (designed binder)
chain: MLPAPKNLVVSRVTEDSARLSWTAPDAAFDSFHIVYHEPRPSGEAIVLTVPGSERSYDLTGLKPGTEYEVGIVGVKGGDLSVPLSAIFTT
B9: SEQ ID NO 52 (designed binder)
chain: MLPAPKNLVVSRVTEDSARLSWTAPDAAFDSFKISYQEWWEDGEAIVLTVPGSERSYDLTGLKPGTEYWVNISGVKGGVQSYPLSAIFTT
B10: SEQ ID NO 257 (designed binder)
chain: B8 chain with G74S
B11: SEQ ID NO 258 (designed binder)
chain: B2 chain with G35P, L37A, Y40S, P42T, A69D, E71W, A73E, L79V, S82W, S88F
B12: SEQ ID NO 259 (designed binder)
chain: B5 chain with W37F, T39F, I40V, G41D, G42A, Y69W, G71E, Y73W, W79S, R82K
B13: SEQ ID NO 260 (designed binder)
chain: MLPAPKNLVVSRVTEDSARLSWTAPDAAFDSFNISYYEYFVHGEAIVLTVPGSERSYDLTGLKPGTEYYVIDGVKGGDPSEPLSAIFTT
B14: SEQ ID NO 261 (designed binder)
chain: MLPAPKNLVVSRVTEDSARLSWTAPDAAFDSFTIVYGEWGVPGEAIVLTVPGSERSYDLTGLKPGTEYDVWIEGVKGGDLSWPLSAIVTT
B15: SEQ ID NO 262 (designed binder)
chain: B5 chain with T33A, W37F, T39Y, I40T, G42E, W79Y, W80L
B16: SEQ ID NO 263 (designed binder)
chain: B2 chain with Y40Q, A69N, E71T, A73Q, L79F, L80P, S82M
B17: SEQ ID NO 264 (designed binder)
chain: B9 chain with K33R, S35K, E41V, D42E, W69V, N71Q, S73A, V79L, Q80S
B18: SEQ ID NO 265 (designed binder)
chain: MLPAPKNLVVSRVTEDSARLSWTAPDAAFDSFWIYYIETSHQGEAIVLTVPGSERSYDLTGLKPGTEYFVLIKGVKGGYDSVPLSAIFTT
B19: SEQ ID NO 266 (designed binder)
chain: MLPAPKNLVVSRVTEDSARLSWTAPDAAFDSFMIRYQEGTRWGEAIVLTVPGSERSYDLTGLKPGTEYIVMIAGVKGGQISLPLSAIFTT
B20: SEQ ID NO 53 (designed binder)
chain: B9 chain with K33F, Q37I, E41D, D42L, W69H, N71E, S73F, V79T
B21: SEQ ID NO 267 (designed binder)
chain: B14 chain with T33P, G37S, W39I, G40H, P42I, D79H, W82E, V88F
B22: SEQ ID NO 268 (designed binder)
chain: B14 chain with W39A, V41A, P42F, W71L, D79N, V88F
B23: SEQ ID NO 269 (designed binder)
chain: MLPAPKNLVVSRVTEDSARLSWTAPDAAFDSFHINYAEVYTKGEAILLTVPGSERSYDLTGLKPGTEYEVYIPGVKGGPFSRPLNAQFTT
B24: SEQ ID NO 271 (designed binder)
chain: B8 chain with H33Y, V35P, H37A, P39T, P41D, S42D, E69S, G71L, V73H, V82S
B25: SEQ ID NO 272 (designed binder)
chain: MLPAPKNLVVSRVTEDSARLSWTAPDAAFDSFGIPYAESTPTGEAIVLTVPGSERSYDLTGLKPGTEYSVLIHGVKGGHLSDPLSAIFTT
B26: SEQ ID NO 274 (designed binder)
chain: MLPAPKNLVVSRVTEDSVRLSWTAPDAAFDSFAISYEEWWVHGEAIVLTVPGSERSYDLTGLKPGTEYSVVIPGVKGGLYSWTLSAISTT
B27: SEQ ID NO 275 (designed binder)
chain: B25 chain with G33L, P35A, S39V, P41L, T42H, H79R, L80N
B28: SEQ ID NO 276 (designed binder)
chain: MLPAPKNLVVSRVTEDSARLSWTAPDAAFDSFRIDYLELTSLGEAIVLTVPGSERSYDLTGLKPGTEYPVPILGVKGGLSSWPLSAIFTT
B29: SEQ ID NO 54 (designed binder)
chain: MLPAPKNLVVSRVTEDSARLSWTAPDAAFDSFQILYQENAFEGEAIVLTVPGSERSYDLTGLKPGTEYWVYIYGVKGGYPSVPLSAIFTT
B30: SEQ ID NO 277 (designed binder)
chain: B5 chain with T33W, E35N, W37Y, T39G, G42E, G71D, Y73S, W79S, W80Y, R82L
B31: SEQ ID NO 278 (designed binder)
chain: B25 chain with G33P, P35A, S39P, T40R, T42D
B32: SEQ ID NO 279 (designed binder)
chain: B5 chain with T33S, W37Y, T39S, I40V, G42L, Y69D, G71S, W79Y, W80L
B33: SEQ ID NO 281 (designed binder)
chain: MLPAPKNLVVSRVTEDSARLSWTAPDAAFDSFYIDYDEIHDWGEAIVLTVPGSERSYDLTGLKPGTEYAVQIGGVKGGSFSWTLSAIFTT
B34: SEQ ID NO 282 (designed binder)
chain: B8 chain with H33A, S42D, G71V, V73L, D79V, L80H, V82Y
B35: SEQ ID NO 283 (designed binder)
chain: B25 chain with G33P, P35A, S39P, T40R, T42D, H79L, D82S
B36: SEQ ID NO 285 (designed binder)
chain: B25 chain with G33L, S39T, T40S, T42S, H79D, L80Y, D82S
B37: SEQ ID NO 286 (designed binder)
chain: MLPAPKNLVVSRVTEDSARLSWTAPDAAFDSFNIYYPEFPVRGEAIVLTVPGSERSYDLTGLKPGTEYVVSIWGVKGGTQSWPLSAIFTT
B38: SEQ ID NO 55 (designed binder)
chain: B5 chain with T33I, T39F, I40V, G42Y, Y69W, G71A, W79D, W80L, R82K
B39: SEQ ID NO 287 (designed binder)
chain: B5 chain with W37H, T39S, I40G, G41P, G42V, Y69M, G71W, Y73F, W79F, W80V
B40: SEQ ID NO 288 (designed binder)
chain: B25 chain with G33L, S39T, T40S, T42S, H79D, L80Y, D82S, F88S
B41: SEQ ID NO 289 (designed binder)
chain: MLPAPKNLVVSRVTEDSARLSWTAPDAAFDSFAIPYYEDTNDGEAIVLTVPGSERSYDLTGLKPGTEYWVSIQGVKGGTVSGPLSAIFTT
B42: SEQ ID NO 290 (designed binder)
chain: MLPAPKNLVVSRVTEDSARLSWTAPDAAFDSFFYLEQAWGGEAIVLTVPGSERSYDLTGLKPGTEYWVEITGVKGGYASSPLSAIFTT
B43: SEQ ID NO 291 (designed binder)
chain: MLPAPKNLVVSRVTEDSARLSWTAPDAAFDSFHIEYEEPETEGEAIYLHVPGSERSYDLTGLKPGTEYKVLIRGVKGGSYSIPLQAPFTT

Each binder was assayed against human serum albumin (human) (UniProt P02768) (assay: screening ELISA).
human serum albumin (human), sequence (P02768 25-609 limits assumed): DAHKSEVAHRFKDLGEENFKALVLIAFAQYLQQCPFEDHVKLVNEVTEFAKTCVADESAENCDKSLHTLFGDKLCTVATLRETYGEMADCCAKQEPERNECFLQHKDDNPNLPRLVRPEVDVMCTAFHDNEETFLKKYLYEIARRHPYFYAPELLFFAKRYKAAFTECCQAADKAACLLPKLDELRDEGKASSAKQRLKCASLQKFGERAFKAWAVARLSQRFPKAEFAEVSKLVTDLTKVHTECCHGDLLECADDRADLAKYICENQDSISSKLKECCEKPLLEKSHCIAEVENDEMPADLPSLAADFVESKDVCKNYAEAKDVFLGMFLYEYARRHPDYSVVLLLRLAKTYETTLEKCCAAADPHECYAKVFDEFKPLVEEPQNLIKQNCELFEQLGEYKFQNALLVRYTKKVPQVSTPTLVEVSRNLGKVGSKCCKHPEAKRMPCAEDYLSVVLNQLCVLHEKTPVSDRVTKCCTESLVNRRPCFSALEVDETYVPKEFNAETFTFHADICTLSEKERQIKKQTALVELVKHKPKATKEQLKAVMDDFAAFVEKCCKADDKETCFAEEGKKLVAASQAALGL

| Binder | HSA |
| --- | --- |
| B1 | 15100 |
| B2 | 18800 |
| B3 | 9650 |
| B4 | 2500 |
| B5 | 2450 |
| B6 | 90000 |
| B7 | 4550 |
| B8 | 2200 |
| B9 | 1760 |
| B10 | 3950 |
| B11 | 10600 |
| B12 | 2100 |
| B13 | 14400 |
| B14 | 5550 |
| B15 | 2350 |
| B16 | 20400 |
| B17 | 2550 |
| B18 | 3950 |
| B19 | 2650 |
| B20 | 9120 |
| B21 | 11900 |
| B22 | 2550 |

| Binder | HSA |
| --- | --- |
| B23 | 4150 |
| B24 | 3050 |
| B25 | 8950 |
| B26 | 11900 |
| B27 | 3800 |
| B28 | 12400 |
| B29 | 6160 |
| B30 | 5200 |
| B31 | 6500 |
| B32 | 3150 |
| B33 | 22400 |
| B34 | 18600 |
| B35 | 6250 |
| B36 | 2200 |
| B37 | 10800 |
| B38 | 7760 |
| B39 | 5500 |
| B40 | 40800 |
| B41 | 2150 |
| B42 | 11800 |
| B43 | 2150 |
